Experimental data taken from article PMC4260937 (Nature, 2014).

Experiments:
Test in all cases: SPR
[1] = target: FFL_001_surf4
[2] = target: FFL_001_surf2
[3] = target: FFL_001_surf1
[4] = target: T1, FFL_001 (synthetic construct (designed scaffold))
T1 chain: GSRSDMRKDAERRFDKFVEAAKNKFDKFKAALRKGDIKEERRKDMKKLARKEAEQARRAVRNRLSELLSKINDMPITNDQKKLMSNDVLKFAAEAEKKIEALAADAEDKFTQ

Molecule: motavizumab Fab
- Kd [1]: 0.0329 nM
- koff [1]: 0.000158 s⁻¹
- Kd [2]: 0.0296 nM
- koff [2]: 0.000158 s⁻¹
- kon [2]: 5.32e+06 M⁻¹ s⁻¹
- Kd [3]: 0.00632 nM
- kon [3]: 7.43e+06 M⁻¹ s⁻¹

B1: 17-HD9 IgG (antibody, V domains shown)
VH: QVQLQESGPGLVKPSETLSLTCVVSGGSFSSYYWTWIRQSPGKGLEWIGEMNGNSGYTNYNPSLQSRVTISKDASKNQFSLKLTSLTAADTAVYYCARDAIVMVFTDMRGRVDVWGPGILVTVSS
VL: DIQMSQSPSSLSASVGDTVTITCRASQGISNYLAWYQQKPGKAPKSLIYYTSHLESGVPSRFSGSGSGTDFSLTISSLQPEDFATYYCQQHNSYPRTFGQGTKVEIK
- Kd [4]: ~0.003 nM
